Laboratory results from patent US20140205597A1.
Residue numbers refer to the chain shown, from its start. Names and notes keep the numbering of the source.

B1: Nb4.1 (VHH)
VHH: EVQLVESGGGLVQPGGSLRLSCAASGSVFKINVMAWYRQAPGKGRELVAGIISGGSTSYADSVKGRFTISRDNAKNTLYLQMNSLRPEDTAVYYCAFITTESDYDLGRRYWGQGTLVTVSS
B2: Nb3.10 (VHH)
VHH: EVQLVESGGGLVQAGGSLRLSCAASRSIGRLDRMGWYRHRPGEPRELVATITGGSSINYGDSVKGRFTISIDNSKNTVYLQMNSLRPEDTAVYYCNFNKYVTSRDTWGQGTLVTVSS
B3: Nb3.14 (VHH)
VHH: B2 VHH with A14P, T114Q
B4: Nb3.1 (VHH)
VHH: B2 VHH with P41T, S62F, S74A, S84N, R86K, L112Q
B5: Nb3.15 (VHH)
VHH: B2 VHH with L11S, A14P
B6: Nb3.12 (VHH)
VHH: B2 VHH with L112Q
B7: Nb3.13 (VHH)
VHH: B2 VHH with A14P, L112Q
B8: Nb3.11 (VHH)
VHH: B2 VHH with A14P, R86K
B9: Nb6.2 (VHH)
VHH: EVQLVESGGGLVQPGGSLRLSCIASGLPFSTKSMGWFRQAPGKEREFVARISPGGTSRYYGDFVKGRFAISRDNAKNTTWLQMNSLKAEDTAVYYCASGERSTYIGSNYYRTNEYDYWGTGTQVTVSS
B10: Example 1C: wildtype VHH (SEQ ID NO: 23) (VHH)
VHH: EVQLVESGGGLVQAGGSLRLSCAASGRTFNNYAMGWFRRAPGKEREFVAAITRSGVRSGVSAIYGDSVKDRFTISRDNAKNTLYLQMNSLKPEDTAVYTCAASAIGSGALRRFEYDYSGQGTQVTVSS
B11: Example 1C: (K83R) (SEQ ID NO: 25) (VHH)
VHH: B10 VHH with K91R
B12: Example 1C: (A14P, K83R, Q108L) (SEQ ID NO: 27) (VHH)
VHH: B10 VHH with A14P, K91R, Q123L
B13: Example 1C: (Q108L) (SEQ ID NO: 26) (VHH)
VHH: B10 VHH with Q123L
B14: Example 1C: (A14P, R39Q, K83R, T91Y, Q108L) (SEQ ID NO: 28) (VHH)
VHH: B10 VHH with A14P, R39Q, K91R, T99Y, Q123L
B15: Example 1C: (A14P) (SEQ ID NO: 24) (VHH)
VHH: B10 VHH with A14P
B16: Nb6.5 (VHH)
VHH: EVQLLESGGGLVQPGGSLRLSCAASGLPFSTKSMGWFRQAPGKGREFVSRISPGGTSRYYGDFVKGRFTISRDNSKNTLYLQMNSLRAEDTAVYYCASGERSTYIGSNYYRTNEYDYWGQGTLVTVSS

Experiments:
[1] = biological target: analytical polyclonal antibody obtained in Example 2; assay: SPR Biacore T100, immobilized polyclonal, 500 nM ISV
[2] = biological target: serum sample IHUS#B09032311A3; assay: ECL displacement assay, variant competes with tagged SEQ ID NO:1
[3] = biological target: serum sample IHUS#B09032311A1; assay: as above
[4] = biological target: serum sample IHUS#B09032311A20; assay: as above
[5] = biological target: affinity purified antibody IHuP#002-001-ABL-08; assay: ECL bridging/competition assay, 10 ug/ml ISV vs tagged ISV

Binder | Binding (RU) [1] | % reduction [2] | ECLU confirmatory assay [2] | % reduction [3] | ECLU confirmatory assay [3] | % reduction [4] | ECLU confirmatory assay [4] | % reduction [5] | ECLU confirmatory assay [5]
B1 | 51 RU | – | – | – | – | – | – | – | –
B2 | 91 RU | – | – | – | – | – | – | – | –
B3 | 79 RU | – | – | – | – | – | – | – | –
B4 | 2 RU | – | – | – | – | – | – | – | –
B5 | 22 RU | – | – | – | – | – | – | – | –
B6 | 86 RU | – | – | – | – | – | – | – | –
B7 | 90 RU | – | – | – | – | – | – | – | –
B8 | 88 RU | – | – | – | – | – | – | – | –
B9 | 39 RU | – | – | – | – | – | – | – | –
B10 | – | 20% | 1780 ECLU | 4% | 60 ECLU | 53% | 8680 ECLU | 7.3% | 2710 ECLU
B11 | – | 37% | 1400 ECLU | 1% | 62 ECLU | 63% | 6910 ECLU | 15.7% | 2460 ECLU
B12 | – | 93% | 156 ECLU | 8% | 57 ECLU | 97% | 628 ECLU | 89.1% | 319 ECLU
B13 | – | 31% | 1530 ECLU | 5% | 59 ECLU | 62% | 6990 ECLU | 13.2% | 2530 ECLU
B14 | – | 90% | 228 ECLU | 6% | 58 ECLU | 97% | 570 ECLU | 91.4% | 251 ECLU
B15 | – | 91% | 205 ECLU | 10% | 56 ECLU | 96% | 668 ECLU | 90.8% | 268 ECLU
B16 | 66 RU | – | – | – | – | – | – | – | –
